Test results reported in paper PMC6921046, “Functional Characterization and Structural Analysis of NADH Oxidase Mutants from Thermus thermophilus HB27: Role of Residues 166, 174, and 194 in the Catalytic Properties and Thermostability” (Microorganisms, 2019).
Positions count from the first letter of the chain named. Numbers in names are those of the source.

Key:
Assay in all cases: purified protein
[1] = substrate: Cc1cc2nc3c(=O)[nH]c(=O)nc-3n(C[C@H](O)[C@H](O)[C@H](O)CO)c2cc1C; conditions: 10 µM NADH, pH 7, 25 °C, exogenous flavin, varied: cofactor
[2] = substrate: NC(=O)C1=CN([C@@H]2O[C@H](COP(=O)(O)OP(=O)(O)OC[C@H]3O[C@@H](n4cnc5c(N)ncnc54)[C@H](O)[C@@H]3O)[C@@H](O)[C@H]2O)C=CC1; type: biochemical, Thermus thermophilus; conditions: 50 µM FAD, pH 7, 25 °C
[3] = substrate: Cc1cc2nc3c(=O)[nH]c(=O)nc-3n(C[C@H](O)[C@H](O)[C@H](O)COP(=O)(O)O)c2cc1C; type: biochemical, Thermus thermophilus; conditions: 10 µM NADH, pH 7, 25 °C, exogenous flavin, varied: cofactor
[4] = substrate: Cc1cc2nc3c(=O)[nH]c(=O)nc-3n(C[C@H](O)[C@H](O)[C@H](O)COP(=O)(O)OP(=O)(O)OC[C@H]3O[C@@H](n4cnc5c(N)ncnc54)[C@H](O)[C@@H]3O)c2cc1C; type: biochemical, Thermus thermophilus; conditions: 10 µM NADH, pH 7, 25 °C, exogenous flavin, varied: cofactor
[5] = authors' cloned wild type, apparent
[6] = authors' cloned wild type K166/H174/Y194, apparent

B1: Tt27-NOX (Thermus thermophilus HB27; H194Y) (protein)
chain: MEATLPVLDAKTAALKRRSIRRYRKDPVPEGLLREILEAALRAPSAWNLQPWRIVVVRDPATKRALREAAFGQAHVEEAPVVLVLYADLEDALAHLDEVIHPGVQGERREAQKQAIQRAFAAMGQEARKAWASGQSYILLGYLLLLLEAYGLGSVPMLGFDPERVKAILGLPSHAAIPALVALGYPAEEGYPSYRLPLERVVLWR
notes: Recombinant, pET22b, E. coli BL21(DE3), heat shock plus PEI-Ag/DS-Ag; homodimer, ~27 kDa monomer
Km ([1]; K166/H174/H194, apparent): 68.7 ± 3.4 µM | Km [1, 5]: 69.7 ± 3.5 µM | Km ([2]; K166/H174/H194, apparent): 1.3 ± 0.06 µM | kcat ([2]; K166/H174/H194, apparent): 27.2 ± 1.4 s⁻¹ | kcat/Km ([2]; K166/H174/H194, apparent): 2.1e+07 ± 1.1e+06 M⁻¹ s⁻¹ | Km [2, 6]: 1.6 ± 0.1 µM | kcat [2, 6]: 23.3 ± 1.2 s⁻¹ | kcat/Km [2, 6]: 1.46e+07 ± 70000 M⁻¹ s⁻¹ | Km ([3]; K166/H174/H194, apparent): 45 ± 2.3 µM | Km [3, 5]: 43 ± 2.2 µM | Km ([4]; K166/H174/H194, apparent): 46 ± 2.3 µM | Km [4, 5]: 34 ± 1.7 µM

B2: Tt27-NOX (Thermus thermophilus HB27; H174R/H194Y) (protein)
chain: B1 chain with H174R
notes: as for B1
Km ([1]; K166/R174/Y194, apparent): 60 ± 3 µM | Km ([2]; K166/R174/Y194, apparent): 1.9 ± 0.1 µM | kcat ([2]; K166/R174/Y194, apparent): 8.6 ± 0.4 s⁻¹ | kcat/Km ([2]; K166/R174/Y194, apparent): 4.5e+06 ± 220000 M⁻¹ s⁻¹ | Km ([3]; K166/R174/Y194, apparent): 15 ± 0.8 µM | Km ([4]; K166/R174/Y194, apparent): 127 ± 6.4 µM

B3: Tt27-NOX (Thermus thermophilus HB27; H194Y/K166R) (protein)
chain: B1 chain with K166R
notes: as for B1
Km ([3]; R166/H174/Y194, apparent): 27 ± 1.4 µM | Km ([4]; R166/H174/Y194, apparent): 30 ± 1.5 µM

B4: R166/R174/H194 variant (Tt8-NOX variant) (Thermus thermophilus HB8; H174R) (protein)
chain: B1 chain with K166R, H174R, Y194H
notes: pET22b, E. coli BL21(DE3); homodimer, ~27 kDa monomer
Km ([1]; R166/R174/H194, apparent): 50.8 ± 2.6 µM | Km ([2]; R166/R174/H194, apparent): 1.8 ± 0.1 µM | kcat ([2]; R166/R174/H194, apparent): 15.1 ± 0.8 s⁻¹ | kcat/Km ([2]; R166/R174/H194, apparent): 8.4e+06 ± 420000 M⁻¹ s⁻¹ | Km ([3]; R166/R174/H194, apparent): 23.6 ± 1 µM | Km ([4]; R166/R174/H194, apparent): 31.9 ± 1.4 µM
